# In paper PMC8523169, “Competitive binding of MatP and topoisomerase IV to the MukB hinge domain” (eLife, 2021):
# B1: MukB long hinge (LH; amino acid residues 568–863) (domain or fragment, E. coli, UniProt P22523 568-863, looked up)
# chain: SLSDSVSNAREERMALRQEQEQLQSRIQSLMQRAPVWLAAQNSLNQLSEQCGEEFTSSQDVTEYLQQLLEREREAIVERDEVGARKNAVDEEIERLSQPGGSEDQRLNALAERFGGVLLSEIYDDVSLEDAPYFSALYGPSRHAIVVPDLSQVTEHLEGLTDCPEDLYLIEGDPQSFDDSVFSVDELEKAVVVKIADRQWRYSRFPEVPLFGRAARESRIESLHAEREVLSERFATLSFDVQKTQRLHQAFSRFIGSHLAVAFESDPEAEIRQLNSRRVELERALSNHENDNQQQR
# notes: MukB, E. coli, residues 568-863: dimeric globular hinge domain and 20% of the coiled-coil region; also called LH (MBP cleaved); LH2; source: NEBExpress cells (pMAL-c5X), purified (amylose, Factor Xa cleavage, HiTrap Q XL, SEC); not shown: MBP, N-terminal, cleaved
# Assays:
# [1] = target: T1, full-length ParC, N-terminal 6xHis-tag (E. coli, UniProt P0AFI2 1-752); assay: ITC; 100 µM LH titrated into 10 µM ParC at 25 °C; one-site model; three repeats; conditions: both partners purified
# T1 construct: ParC subunit of topoisomerase IV, E. coli, full length; also called His-ParC; ParC2; source: overexpressed, purified as previously published (Nolivos et al., 2016) with an added SEC step; not shown: His6, N-terminal, kept
# T1 sequence (looked up): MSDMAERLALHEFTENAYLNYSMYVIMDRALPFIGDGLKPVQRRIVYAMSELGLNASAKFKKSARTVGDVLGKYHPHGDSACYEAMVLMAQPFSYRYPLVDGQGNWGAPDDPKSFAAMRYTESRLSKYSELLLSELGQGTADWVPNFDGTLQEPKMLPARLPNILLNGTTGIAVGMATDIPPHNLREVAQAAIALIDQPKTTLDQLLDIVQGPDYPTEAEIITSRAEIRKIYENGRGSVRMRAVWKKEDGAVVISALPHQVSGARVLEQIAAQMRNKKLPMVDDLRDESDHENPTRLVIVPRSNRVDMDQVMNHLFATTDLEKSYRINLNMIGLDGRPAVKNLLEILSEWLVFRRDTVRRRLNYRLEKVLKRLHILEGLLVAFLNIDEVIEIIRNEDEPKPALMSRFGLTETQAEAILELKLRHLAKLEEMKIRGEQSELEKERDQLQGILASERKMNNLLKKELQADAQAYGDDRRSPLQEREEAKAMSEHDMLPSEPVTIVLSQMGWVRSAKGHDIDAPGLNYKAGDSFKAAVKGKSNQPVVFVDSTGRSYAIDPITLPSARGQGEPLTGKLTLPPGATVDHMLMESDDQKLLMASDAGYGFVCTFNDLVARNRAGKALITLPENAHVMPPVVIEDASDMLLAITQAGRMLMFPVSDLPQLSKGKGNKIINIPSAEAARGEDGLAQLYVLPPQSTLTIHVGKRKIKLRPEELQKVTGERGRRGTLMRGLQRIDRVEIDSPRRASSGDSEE
# [2] = target: T1, full-length ParC, N-terminal 6xHis-tag; assay: native MS; proteins buffer exchanged into 200 mM ammonium acetate pH 8.0, alone or mixed in different ratios (two or three components, with or without 50 bp DNA), 10 min on ice; conditions: both partners purified
# [3] = target: the molecule itself; assay: as above
binder,measurement,setting,value
B1,Kd,[1],690 nM
same,dH,[1],-7.48 kcal/mol
same,stoichiometry N,[1],0.84
same,stoichiometry N,[2],1 LH dimer per ParC dimer
same,stoichiometry N,[3],2
